From paper PMC10397247

What was measured:
Test in all cases: two-hybrid library CCNG1;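 also: natural log of median RNA to DNA barcode read ratio; higher means stronger binding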
4H570-bA = biological target: T1, 4H570-bA
T1 chain: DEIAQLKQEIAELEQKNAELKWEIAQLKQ

4H591-bA = biological target: T2, 4H591-bA
T2 chain: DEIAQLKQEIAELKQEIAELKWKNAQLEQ

4H3162-bA = biological target: T3, 4H3162-bA
T3 chain: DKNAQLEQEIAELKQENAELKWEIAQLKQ

4H3277-bA = biological target: T4, 4H3277-bA
T4 chain: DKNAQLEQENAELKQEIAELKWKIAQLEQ

4H3638-bA = biological target: T5, 4H3638-bA
T5 chain: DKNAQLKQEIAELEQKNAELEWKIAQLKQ

4H626-bA = biological target: T6, 4H626-bA
T6 chain: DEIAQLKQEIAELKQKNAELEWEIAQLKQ

4H906-bA = biological target: T7, 4H906-bA
T7 chain: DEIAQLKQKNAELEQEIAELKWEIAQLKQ

4H3414-bA = biological target: T8, 4H3414-bA
T8 chain: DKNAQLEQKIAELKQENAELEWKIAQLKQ

4H3298-bA = biological target: T9, 4H3298-bA
T9 chain: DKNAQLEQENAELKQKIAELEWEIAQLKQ

4H3497-bA = biological target: T10, 4H3497-bA
T10 chain: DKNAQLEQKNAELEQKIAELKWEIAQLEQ

4H3172-bA = biological target: T11, 4H3172-bA
T11 chain: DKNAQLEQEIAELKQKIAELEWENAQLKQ

4H3974-bA = biological target: T12, 4H3974-bA
T12 chain: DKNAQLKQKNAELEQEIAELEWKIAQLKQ

4H3628-bA = biological target: T13, 4H3628-bA
T13 chain: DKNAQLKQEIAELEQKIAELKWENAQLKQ

4H1899-bA = biological target: T14, 4H1899-bA
T14 chain: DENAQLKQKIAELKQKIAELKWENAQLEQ

4H1985-bA = biological target: T15, 4H1985-bA
T15 chain: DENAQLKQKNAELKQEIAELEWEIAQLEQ

O14-bA = biological target: T16, O14-bA
T16 chain: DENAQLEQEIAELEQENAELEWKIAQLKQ

4H1804-bA = biological target: T17, 4H1804-bA
T17 chain: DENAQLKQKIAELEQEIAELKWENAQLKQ

4H3817-bA = biological target: T18, 4H3817-bA
T18 chain: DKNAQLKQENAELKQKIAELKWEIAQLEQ

4H1710-bA = biological target: T19, 4H1710-bA
T19 chain: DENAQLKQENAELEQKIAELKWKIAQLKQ

4H850-bA = biological target: T20, 4H850-bA
T20 chain: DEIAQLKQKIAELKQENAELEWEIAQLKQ

4H3858-bA = biological target: T21, 4H3858-bA
T21 chain: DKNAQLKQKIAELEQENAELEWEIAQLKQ

4H3175-bA = biological target: T22, 4H3175-bA
T22 chain: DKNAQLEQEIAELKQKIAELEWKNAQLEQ

4H3631-bA = biological target: T23, 4H3631-bA
T23 chain: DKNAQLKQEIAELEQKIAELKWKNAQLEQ

4H3855-bA = biological target: T24, 4H3855-bA
T24 chain: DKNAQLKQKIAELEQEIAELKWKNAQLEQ

4H3613-bA = biological target: T25, 4H3613-bA
T25 chain: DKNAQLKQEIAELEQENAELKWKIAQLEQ

4H584-bA = biological target: T26, 4H584-bA
T26 chain: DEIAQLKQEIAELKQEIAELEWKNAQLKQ

4H3129-bA = biological target: T27, 4H3129-bA
T27 chain: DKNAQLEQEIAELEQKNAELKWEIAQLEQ

4H3462-bA = biological target: T28, 4H3462-bA
T28 chain: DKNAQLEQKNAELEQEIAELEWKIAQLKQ

4H3926-bA = biological target: T29, 4H3926-bA
T29 chain: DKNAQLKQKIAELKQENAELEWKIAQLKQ

4H619-bA = biological target: T30, 4H619-bA
T30 chain: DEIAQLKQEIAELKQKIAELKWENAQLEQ

4H3961-bA = biological target: T31, 4H3961-bA
T31 chain: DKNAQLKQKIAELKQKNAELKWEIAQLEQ

4H363-bA = biological target: T32, 4H363-bA
T32 chain: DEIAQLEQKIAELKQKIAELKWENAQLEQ

4H470-bA = biological target: T33, 4H470-bA
T33 chain: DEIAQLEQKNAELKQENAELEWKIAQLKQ

4H3907-bA = biological target: T34, 4H3907-bA
T34 chain: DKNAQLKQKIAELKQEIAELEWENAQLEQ

4H796-bH = biological target: T35, 4H796-bH
T35 chain: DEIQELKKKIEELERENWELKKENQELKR

4H2760-bH = biological target: T36, 4H2760-bH
T36 chain: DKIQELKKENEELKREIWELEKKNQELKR

4H3041-bH = biological target: T37, 4H3041-bH
T37 chain: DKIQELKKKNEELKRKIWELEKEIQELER

4H2931-bH = biological target: T38, 4H2931-bH
T38 chain: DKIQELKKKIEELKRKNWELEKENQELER

4H3364-bH = biological target: T39, 4H3364-bH
T39 chain: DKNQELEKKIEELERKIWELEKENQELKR

4H730-bH = biological target: T40, 4H730-bH
T40 chain: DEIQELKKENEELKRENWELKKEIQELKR

4H2444-bH = biological target: T41, 4H2444-bH
T41 chain: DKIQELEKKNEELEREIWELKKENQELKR

4H932-bH = biological target: T42, 4H932-bH
T42 chain: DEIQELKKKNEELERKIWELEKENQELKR

4H2585-bH = biological target: T43, 4H2585-bH
T43 chain: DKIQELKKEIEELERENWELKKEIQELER

4H264-bH = biological target: T44, 4H264-bH
T44 chain: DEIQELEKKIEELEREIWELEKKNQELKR

4H3381-bH = biological target: T45, 4H3381-bH
T45 chain: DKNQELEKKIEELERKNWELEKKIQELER

4H2859-bH = biological target: T46, 4H2859-bH
T46 chain: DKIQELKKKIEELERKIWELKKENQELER

4H349-bH = biological target: T47, 4H349-bH
T47 chain: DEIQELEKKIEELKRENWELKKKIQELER

4H949-bH = biological target: T48, 4H949-bH
T48 chain: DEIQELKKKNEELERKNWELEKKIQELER

4H56-bH = biological target: T49, 4H56-bH
T49 chain: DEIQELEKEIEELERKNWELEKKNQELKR

4H2518-bH = biological target: T50, 4H2518-bH
T50 chain: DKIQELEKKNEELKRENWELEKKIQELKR

4H3297-bH = biological target: T51, 4H3297-bH
T51 chain: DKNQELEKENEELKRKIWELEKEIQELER

P8mSN = biological target: T52, P8mSN
T52 chain: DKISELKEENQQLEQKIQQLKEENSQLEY

P5mSN = biological target: T53, P5mSN
T53 chain: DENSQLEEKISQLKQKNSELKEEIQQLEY

P7mSN = biological target: T54, P7mSN
T54 chain: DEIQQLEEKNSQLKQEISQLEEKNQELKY

P4mSN = biological target: T55, P4mSN
T55 chain: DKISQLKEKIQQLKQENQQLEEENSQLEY

P6mSN = biological target: T56, P6mSN
T56 chain: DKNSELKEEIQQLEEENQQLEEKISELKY

P9mSN = biological target: T57, P9mSN
T57 chain: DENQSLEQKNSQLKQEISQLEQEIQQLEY

4H906-bN = biological target: T58, 4H906-bN
T58 chain: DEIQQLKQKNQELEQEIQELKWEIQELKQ

B1: 4H1710-bA (peptide)
chain: DENAQLKQENAELEQKIAELKWKIAQLKQ
B1 was tested, and the interaction score (4H570-bA) was -1.24, the interaction score (4H591-bA) was -1.11 and the interaction score (4H3162-bA) was -0.713. For the same binder, the interaction score (4H3277-bA) was -0.282, the interaction score (4H3638-bA) was 0.729 and the interaction score (4H626-bA) was -0.621. It also gave an interaction score (4H906-bA) of 0.904, an interaction score (4H3414-bA) of -0.541 and an interaction score (4H3298-bA) of 0.819. The interaction score (4H3497-bA) was 1.01, the interaction score (4H3172-bA) was -0.97 and the interaction score (4H3974-bA) was 1.34. For the same binder, the interaction score (4H3628-bA) was 0.848, the interaction score (4H1899-bA) was -0.115 and the interaction score (4H1985-bA) was 2.11. It also gave an interaction score (O14-bA) of -1.06, an interaction score (4H1804-bA) of -0.669 and an interaction score (4H3817-bA) of 1.53. For the same binder, the interaction score (4H1710-bA) was 0.102, the interaction score (4H850-bA) was 0.0118 and the interaction score (4H3858-bA) was 0.318. For the same binder, the interaction score (4H3175-bA) was -0.421, the interaction score (4H3631-bA) was 1.48 and the interaction score (4H3855-bA) was 0.515. For the same binder, the interaction score (4H3613-bA) was 0.262, the interaction score (4H584-bA) was -0.0679 and the interaction score (4H3129-bA) was 0.367. The interaction score (4H3462-bA) was 1.04, the interaction score (4H3926-bA) was 0.352 and the interaction score (4H619-bA) was 0.519.

B2: 4H363-bA (peptide)
chain: DEIAQLEQKIAELKQKIAELKWENAQLEQ
B2 showed an interaction score (4H3961-bA) of 0.154, an interaction score (4H363-bA) of 1.08 and an interaction score (4H470-bA) of -2.31. For the same binder, the interaction score (4H3907-bA) was 1.32.

B3: 4H2444-bH (peptide)
chain: DKIQELEKKNEELEREIWELKKENQELKR
B3 gave an interaction score (4H796-bH) of 0.0566, an interaction score (4H2760-bH) of 0.592 and an interaction score (4H3041-bH) of -0.0348. The interaction score (4H2931-bH) was 0.0488, the interaction score (4H3364-bH) was 0.375 and the interaction score (4H730-bH) was -0.91. For the same binder, the interaction score (4H2444-bH) was 1.48, the interaction score (4H932-bH) was 0.176 and the interaction score (4H2585-bH) was 0.868. The interaction score (4H264-bH) was -2.12, the interaction score (4H3381-bH) was 0.313 and the interaction score (4H2859-bH) was 0.771. It also gave an interaction score (4H349-bH) of -0.694, an interaction score (4H949-bH) of -0.478 and an interaction score (4H56-bH) of -0.284. For the same binder, the interaction score (4H2518-bH) was 0.571 and the interaction score (4H3297-bH) was 0.285.

B4: 4H1804-bA (peptide)
chain: DENAQLKQKIAELEQEIAELKWENAQLKQ
With B4 the interaction score (4H570-bA) was -0.765, the interaction score (4H3638-bA) was -0.376 and the interaction score (4H906-bA) was -0.55. The interaction score (4H3414-bA) was -0.0712, the interaction score (4H3172-bA) was -0.016 and the interaction score (4H3974-bA) was -0.32. For the same binder, the interaction score (4H1985-bA) was -0.729, the interaction score (4H1804-bA) was 0.9 and the interaction score (4H3817-bA) was -0.0173. It also gave an interaction score (4H850-bA) of -0.531, an interaction score (4H3631-bA) of 0.394 and an interaction score (4H584-bA) of -0.489. The interaction score (4H3129-bA) was 0.386 and the interaction score (4H619-bA) was -1.65.

B5: P4mSN (peptide)
chain: DKISQLKEKIQQLKQENQQLEEENSQLEY
For B5, the interaction score (P8mSN) was -1.53, the interaction score (P5mSN) was -1.42 and the interaction score (P7mSN) was -1.04. For the same binder, the interaction score (P4mSN) was -1.76, the interaction score (P6mSN) was -0.838 and the interaction score (P9mSN) was -1.07.

B6: 4H906-bN (peptide)
chain: DEIQQLKQKNQELEQEIQELKWEIQELKQ
B6 gave an interaction score (P4mSN) of -1.42 and an interaction score (4H906-bN) of -0.198.
